This data set concerns the molecule itself. Kind of data set: cryo-EM structure.

B1: K2P13.1EM (human K2P13.1 (THIK-1) residues 1-350, N59Q/N65Q) (domain or fragment, UniProt Q9HB14 1-350, looked up)
chain: MAGRGFSWGPGHLNEDNARFLLLAALIVLYLLGGAAVFSALELAHERQAKQRWEERLAQFSRGHQLSRDELRGFLRHYEEATRAGIRVDNVRPRWDFTGAFYFVGTVVSTIGFGMTTPATVGGKIFLIFYGLVGCSSTILFFNLFLERLITIIAYIMKSCHQRQLRRRGALPQESLKDAGQCEVDSLAGWKPSVYYVMLILCTASILISCCASAMYTPIEGWSYFDSLYFCFVAFSTIGFGDLVSSQNAHYESQGLYRFANFVFILMGVCCIYSLFNVISILIKQSLNWILRKMDSGCCPQCQRGLLRSRRNVVMPGSVRNRCNISIETDGVAESDTDGRRLSGEMISMK
On to B1, for which the “stoichiometry N” value turned out to be 2.

B2: K2P13.1EM S136P/Y273A (domain or fragment, human, UniProt Q9HB14 1-350, looked up)
chain: MAGRGFSWGPGHLNEDNARFLLLAALIVLYLLGGAAVFSALELAHERQAKQRWEERLAQFSRGHQLSRDELRGFLRHYEEATRAGIRVDNVRPRWDFTGAFYFVGTVVSTIGFGMTTPATVGGKIFLIFYGLVGCPSTILFFNLFLERLITIIAYIMKSCHQRQLRRRGALPQESLKDAGQCEVDSLAGWKPSVYYVMLILCTASILISCCASAMYTPIEGWSYFDSLYFCFVAFSTIGFGDLVSSQNAHYESQGLYRFANFVFILMGVCCIASLFNVISILIKQSLNWILRKMDSGCCPQCQRGLLRSRRNVVMPGSVRNRCNISIETDGVAESDTDGRRLSGEMISMK
B2: the binding result is recorded as “binds”.

In general, stoichiometry N refers to the number of molecules, sites or subunits per partner or assembly.

(Values after paper PMC11230452 (bioRxiv, 2024).)
